In patent US20250381223A1 (UTC THERAPEUTICS SHANGHAI, published 2025):

T1: BCMA-Fc recombinant protein (human, UniProt Q02223 1-54)
T1 construct: construct not described; not shown: Fc part
T1 sequence (looked up): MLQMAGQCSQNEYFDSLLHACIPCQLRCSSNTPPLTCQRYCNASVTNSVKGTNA


Experiments:
[1] = target: T1, BCMA-Fc recombinant protein; experiment: flow cytometry; CAR-T cells stained with 5 µg/mL BCMA-Fc, anti-human IgG Fc
Experimental: (5) Screening for functional anti-BCMA scFv in T cells: the anti-BCMA scFv was constructed into a bicistronic lentiviral CAR expression vector containing an IRES-truncated EGFR (tEGFR) expression cassette. The lentivirus was produced by transient transfection of 293T cells, followed by purification by ultracentrifugation and concentration. T cells were transduced with the CAR lentivirus to generate CAR-T cells, which were then cultured for 10 days. 10 days after lentivirus transduction, CAR-T cells were collected and stained with 5 μg/mL CD19-Fc protein (Ctrl Fc protein) or BCMA-Fc recombinant protein for 30 min at 4° C. After washing, the CAR-T cells were stained with the anti-human IgG Fc and anti-EGFR mAb. The samples were analyzed using a flow cytometer.

CD40-Fc [2] = target: T2, CD40-Fc (human, UniProt P25942); experiment: flow cytometry of T cells co-electroporated with 15 µg diabody mRNA and 2 µg M12 CAR mRNA; CD40-Fc + PE-anti-Fc; E1 without mRNA: 0.56
T2 construct: part fused to Fc; staining reagent of the flow cytometry; also called recombinant human CD40-Fc antigen protein

CD40-Fc [3] = target: T2, CD40-Fc; experiment: flow cytometry of T cells co-electroporated with 15 µg diabody mRNA and 0.5 µg 4D5.BBZ mRNA; CD40-Fc + PE-anti-IgG-Fc; E1 without mRNA: 0.27

Row | Binder | binding result [1] | % of cells in the positive gate (CD40-Fc [2]) | % of cells in the positive gate (CD40-Fc [3])
1 | BCMA32 (scFv, On lentivirus-transduced T cells as CAR; also called anti-BCMA scFv BCMA32) scFv: QSALTQPASVSGSPGQSITISCTGTSSDVGGYNYVSWYQQHPGKAPKLMIYDVSKRPSGVSNRFSGSKSGNTASLTISGLQAEDEADYYCSSYTSSSTVVFGGGTKLTVLGGGGSGGGGSGGGGSQVQLQESGAEVKKPGSSVKVSCKASGGTFSRYAISWVRQAPGQGLEWMGGIIPFFGTSDYAQKFQGRVTITADESTSTAYMDLSRLRSEDTAVYYCAVRVATTGTGFYYAMDVWGQGTTVTVSS | binds |  | 
2 | BCMA28 (scFv, On lentivirus-transduced T cells as CAR; also called anti-BCMA scFv BCMA28) scFv: QSALTQPPSVSEAPRQRVTISCSGSSSNIGQNAVNWYQKLPGKAPKLLIYYNDLVSSGVSDRFSGSKSGTSASLAISGLQSEDEADYYCATWDDSLNGVVFGGGTKVTVLGGGGSGGGGSGGGGSQVQLVQSGPGLVKPSQTLSLTCAISGDSVSSNSAAWNWIRQSPSRGLEWLGRTYYRSKWYNDYAVSVKSRITINPDTSKNQFSLQLNSVTPEDTAVYYCARDYYYGMDVWGQGTTVTVSS | binds |  | 
3 | BCMA33 (scFv, On lentivirus-transduced T cells as CAR; also called anti-BCMA scFv BCMA33) scFv: QSALTQPPSASGSPGQSVTISCTGTSSDVGGYNYVSWYQQHPGKAPKLMIYEVSKRPSGVPDRFSGSKSGNTASLTVSGLQAEDEADYFCSSYAGSNNFVVFGGGTKLTVLGGGGSGGGGSGGGGSEVQLVESGGGLVQPGRSLRLSCAASGFTFDDYAMHWVRQAPGKGLEWVSGISWNSGSIGYADSVKGRFTISRDNAKNSLYLQMNSLRAEDTALYYCAKVGASAALGAFDIWGQGTMVTVSS | binds |  | 
4 | BCMA34 (scFv, On lentivirus-transduced T cells as CAR; also called anti-BCMA scFv BCMA34) scFv: QPGLTQPPSVSKGLRQTATLTCTGNSNNVGNQGAAWLQQHQGHPPKLLSYRNNNRPSGISERFSASRSGNTASLTITGLQPEDEADYYCSAWDSSLSARVFGGGTKLTVLGGGGSGGGGSGGGGSQVQLVQSGAEVKKPGASVKVSCKTSGYTFSNPFVHWVRQAPGQGLEWVGIINLSGGDTLYAQKFQGGVTMTRDTSTNTAYMELTSLTFEDTAVYYCARDQAGFGDSAYWGQGTLVTVSS | binds |  | 
5 | 4.3 (bispecific antibody, expressed from mRNA in T cells) scFv-G4S-scFv: QVKLQESGPGLVKPSETLSITCTVSGFSLSDYGVHWVRQSPGKGLEWLGVIWAGGGTNYNSALMSRKTISKDNSKSQVFLKMSSLTAADTAVYYCARDKGYSYYYSMDYWGQGTTVTVSSGGGGSGGGGSGGGGSDIQLTQSPSSLSVSVGDRVTISCRASESVEYYVTSLMQWYQQKPGQAPKLLIFAASNVESGVPSRFSGSGSGTNFTLTISSVQEEDFAMYFCQQSRKVPYTFGGGTKLEIKGGGGSQSALTQPPSASGSPGQSVTISCTGTSSDVGAYNFVSWYQQHPGNAPKLIIYDVRKRPSGIPDRFSASKSGNTASLTVSGLQADDEADYYCSSYAGNNNLVFGGGTKLTVLGGGGSGGGGSGGGGSQVQLVQSGAEVKKPGSSVKVSCKASGGTFSSYAISWVRQAPGQGLEWMGMINPSGGTTSYAQKFQGRVTMTRDTSTSTVYMELSSLRPEDTAVYYCARGFRMDQWGQGTLVTVSS |  | 36.3 | 43.5
6 | 4.5 (bispecific antibody, expressed from mRNA in T cells) scFv-G4S-scFv: QVQLVQSGAEVKKPGSSVKVSCKASGGTFSSYAISWVRQAPGQGLEWMGMINPSGGTTSYAQKFQGRVTMTRDTSTSTVYMELSSLRPEDTAVYYCARGFRMDQWGQGTLVTVSSGGGGSGGGGSGGGGSQSALTQPPSASGSPGQSVTISCTGTSSDVGAYNFVSWYQQHPGNAPKLIIYDVRKRPSGIPDRFSASKSGNTASLTVSGLQADDEADYYCSSYAGNNNLVFGGGTKLTVLGGGGSDIQLTQSPSSLSVSVGDRVTISCRASESVEYYVTSLMQWYQQKPGQAPKLLIFAASNVESGVPSRFSGSGSGTNFTLTISSVQEEDFAMYFCQQSRKVPYTFGGGTKLEIKGGGGSGGGGSGGGGSQVKLQESGPGLVKPSETLSITCTVSGFSLSDYGVHWVRQSPGKGLEWLGVIWAGGGTNYNSALMSRKTISKDNSKSQVFLKMSSLTAADTAVYYCARDKGYSYYYSMDYWGQGTTVTVSS |  | 65 | 72.2
7 | BCMA30 (scFv, On lentivirus-transduced T cells as CAR; also called anti-BCMA scFv BCMA30) scFv: DIQMTQSPSFLSASVGDRVTITCRASQGISSYLAWYQQKPGKAPKLLIYAASTLQSGVPSRFSGSGSGTEFTLTISSLQPEDFATYYCQQLNSYPPWTFGQGTKVEIKGGGGSGGGGSGGGGSQVQLVQSGAEVKKPGESLKISCKGSGYRFTSYWIGWVRQMPGKGLEWMGIIYPGDSDTRYSPPFQGQVTISADKSIDTAYLQWSSLKASDTAMYYCARLDASGSQRGGMDVWGQGTTVTVSS | binds |  | 
8 | 4.4 (bispecific antibody, expressed from mRNA in T cells) scFv-G4S-scFv: QVKLQESGPGLVKPSETLSITCTVSGFSLSDYGVHWVRQSPGKGLEWLGVIWAGGGTNYNSALMSRKTISKDNSKSQVFLKMSSLTAADTAVYYCARDKGYSYYYSMDYWGQGTTVTVSSGGGGSGGGGSGGGGSDIQLTQSPSSLSVSVGDRVTISCRASESVEYYVTSLMQWYQQKPGQAPKLLIFAASNVESGVPSRFSGSGSGTNFTLTISSVQEEDFAMYFCQQSRKVPYTFGGGTKLEIKGGGGSQVQLVQSGAEVKKPGSSVKVSCKASGGTFSSYAISWVRQAPGQGLEWMGMINPSGGTTSYAQKFQGRVTMTRDTSTSTVYMELSSLRPEDTAVYYCARGFRMDQWGQGTLVTVSSGGGGSGGGGSGGGGSQSALTQPPSASGSPGQSVTISCTGTSSDVGAYNFVSWYQQHPGNAPKLIIYDVRKRPSGIPDRFSASKSGNTASLTVSGLQADDEADYYCSSYAGNNNLVFGGGTKLTVL |  | 51 | 55.4
9 | BCMA31 (scFv, On lentivirus-transduced T cells as CAR; also called anti-BCMA scFv BCMA31) scFv: QSALTQPPSASGSPGQSVTISCTGTSSDVGTYNYVSWYQQHPGKAPKLMIYDVNQRPSGVPDRFSGSKSGNTASLTVSGLQAEDEADYYCSSYGGSNNLVFGGGTKVTVLGGGGSGGGGSGGGGSEVQLVESGGGLIQPGGSLRLSCAASGFTFSSYWMSWVRQSPGKGLEWVANIKPDGSDKYYVDSVKGRFTISRDNAKNSLDLQMNSLRGEDTAIYYCARGATTYGSWGQGTLVTVSS | binds |  | 
10 | 4.1 (bispecific antibody, expressed from mRNA in T cells) scFv-G4S-scFv: DIQLTQSPSSLSVSVGDRVTISCRASESVEYYVTSLMQWYQQKPGQAPKLLIFAASNVESGVPSRFSGSGSGTNFTLTISSVQEEDFAMYFCQQSRKVPYTFGGGTKLEIKGGGGSGGGGSGGGGSQVKLQESGPGLVKPSETLSITCTVSGFSLSDYGVHWVRQSPGKGLEWLGVIWAGGGTNYNSALMSRKTISKDNSKSQVFLKMSSLTAADTAVYYCARDKGYSYYYSMDYWGQGTTVTVSSGGGGSQSALTQPPSASGSPGQSVTISCTGTSSDVGAYNFVSWYQQHPGNAPKLIIYDVRKRPSGIPDRFSASKSGNTASLTVSGLQADDEADYYCSSYAGNNNLVFGGGTKLTVLGGGGSGGGGSGGGGSQVQLVQSGAEVKKPGSSVKVSCKASGGTFSSYAISWVRQAPGQGLEWMGMINPSGGTTSYAQKFQGRVTMTRDTSTSTVYMELSSLRPEDTAVYYCARGFRMDQWGQGTLVTVSS |  | 95.8 | 95.3
11 | 4.6 (bispecific antibody, expressed from mRNA in T cells) scFv-G4S-scFv: QVQLVQSGAEVKKPGSSVKVSCKASGGTFSSYAISWVRQAPGQGLEWMGMINPSGGTTSYAQKFQGRVTMTRDTSTSTVYMELSSLRPEDTAVYYCARGFRMDQWGQGTLVTVSSGGGGSGGGGSGGGGSQSALTQPPSASGSPGQSVTISCTGTSSDVGAYNFVSWYQQHPGNAPKLIIYDVRKRPSGIPDRFSASKSGNTASLTVSGLQADDEADYYCSSYAGNNNLVFGGGTKLTVLGGGGSQVKLQESGPGLVKPSETLSITCTVSGFSLSDYGVHWVRQSPGKGLEWLGVIWAGGGTNYNSALMSRKTISKDNSKSQVFLKMSSLTAADTAVYYCARDKGYSYYYSMDYWGQGTTVTVSSGGGGSGGGGSGGGGSDIQLTQSPSSLSVSVGDRVTISCRASESVEYYVTSLMQWYQQKPGQAPKLLIFAASNVESGVPSRFSGSGSGTNFTLTISSVQEEDFAMYFCQQSRKVPYTFGGGTKLEIK |  | 97.9 | 98.5
12 | 4.2 (bispecific antibody, expressed from mRNA in T cells) scFv-G4S-scFv: DIQLTQSPSSLSVSVGDRVTISCRASESVEYYVTSLMQWYQQKPGQAPKLLIFAASNVESGVPSRFSGSGSGTNFTLTISSVQEEDFAMYFCQQSRKVPYTFGGGTKLEIKGGGGSGGGGSGGGGSQVKLQESGPGLVKPSETLSITCTVSGFSLSDYGVHWVRQSPGKGLEWLGVIWAGGGTNYNSALMSRKTISKDNSKSQVFLKMSSLTAADTAVYYCARDKGYSYYYSMDYWGQGTTVTVSSGGGGSQVQLVQSGAEVKKPGSSVKVSCKASGGTFSSYAISWVRQAPGQGLEWMGMINPSGGTTSYAQKFQGRVTMTRDTSTSTVYMELSSLRPEDTAVYYCARGFRMDQWGQGTLVTVSSGGGGSGGGGSGGGGSQSALTQPPSASGSPGQSVTISCTGTSSDVGAYNFVSWYQQHPGNAPKLIIYDVRKRPSGIPDRFSASKSGNTASLTVSGLQADDEADYYCSSYAGNNNLVFGGGTKLTVL |  | 97.7 | 98.2
